According to patent US20220098269A1 (IMMATICS BIOTECHNOLOGIES, published 2022):

Each binder was assayed against T1, HLA-A*02:01 (human) (assay: UV-ligand exchange, anti-b2m ELISA; peptide exchange yield grade).
T1 construct: Peptide-receptive MHC class I monomer after UV cleavage of a UV-sensitive ligand
Source text: (§1) Candidate peptides for T cell based therapies according to the present invention were further tested for their MHC binding capacity (affinity). The individual peptide-MHC complexes were produced by UV-ligand exchange, where a UV-sensitive peptide is cleaved upon UV-irradiation and exchanged with the peptide of interest as analyzed. Only peptide candidates that can effectively bind and stabilize the peptide-receptive MHC molecules prevent dissociation of the MHC complexes. To determine the yield of the exchange reaction, an ELISA was performed based on the detection of the light chain (β2m) of stabilized MHC complexes. The assay was performed as generally described in Rodenko et al. (Rodenko et al., 2006).
(§2) 96 well MAXISorp plates (NUNC) were coated over night with 2 μg/ml streptavidin in PBS at room temperature, washed 4× and blocked for 1h at 37° C. in 2% BSA containing blocking buffer. Refolded HLA-A*02:01/MLA-001 monomers served as standards, covering the range of 15-500 ng/ml. Peptide-MHC monomers of the UV-exchange reaction were diluted 100-fold in blocking buffer. Samples were incubated for 1 h at 37° C., washed four times, incubated with 2 μg/ml HRP conjugated anti-β2m for 1h at 37° C., washed again and detected with TMB solution that is stopped with […]. Absorption was measured at 450 nm. Candidate peptides that show a high exchange yield (preferably higher than 50%, most preferred higher than 75%) are generally preferred for a generation and production of antibodies or fragments thereof, and/or T cell receptors or fragments thereof, as they show sufficient avidity to the MHC molecules and prevent dissociation of the MHC complexes.

SLIDITHGF: binds.

The binders below were run against T2, HLA-A*03:01 (human) in the same assay as above.
T2 construct: Peptide-receptive MHC class I monomer after UV cleavage of a UV-sensitive ligand
Source text: as §1, §2

First: RLWDFTMNAK
Second: NLYDWSASY
The peptide exchange yield of the first is higher: 50 to 75% for the first, 20 to 50% for the second.

KAYDQTHLY and IVRDLSCRK cannot be ordered by peptide exchange yield: at least 75% for the first, 50 to 75% for the second.

First: HLYYDVTEK
Second: RLPAADFTRY
The peptide exchange yield of the first is higher: 50 to 75% for the first, 20 to 50% for the second.

The binders below were run against T3, HLA-A*24:02 (human) in the same assay as above.
T3 construct: Peptide-receptive MHC class I monomer after UV cleavage of a UV-sensitive ligand
Source text: as §1, §2

First: VYIDDSVEL
Second: AFDKTIVKL
The peptide exchange yield of the first is higher: at least 75% for the first, 20 to 50% for the second.

EYQDFSTLF and RYVNDYTNSF cannot be ordered by peptide exchange yield: at least 75% for the first, at least 75% for the second.

IYPDGTLLI and VYVDTTELAL cannot be ordered by peptide exchange yield: at least 75% for the first, at least 75% for the second.

Compared with HLFYDVTVF, VYLDASKVPGF is higher in peptide exchange yield: 20 to 50% for the first, at least 75% for the second.

IFVPTDRSL and RQDESYLNF fall in the same range of peptide exchange yield: 20 to 50% for the first, 20 to 50% for the second.

The binders below were run against T4, HLA-B*07:02 (human) in the same assay as above.
T4 construct: Peptide-receptive MHC class I monomer after UV cleavage of a UV-sensitive ligand
Source text: as §1, §2

LPFFTDKTLSF and VPRNQDESV cannot be ordered by peptide exchange yield: at least 75% for the first, at least 75% for the second.

APFKDVTEY and GEPTSDITLL fall in the same range of peptide exchange yield: 50 to 75% for the first, 50 to 75% for the second.

FPYYLKIDY and SPKIFDSSW fall in the same range of peptide exchange yield: 50 to 75% for the first, 50 to 75% for the second.

HPFGYDLTL and NPADISVAL cannot be ordered by peptide exchange yield: at least 75% for the first, at least 75% for the second.

With HPDLTSMTF the peptide exchange yield was at least 75%.

What follows are binders tested against T5, HLA-B*08:01 (human) in the same assay as above.
T5 construct: Peptide-receptive MHC class I monomer after UV cleavage of a UV-sensitive ligand
Source text: as §1, §2

DVSDKITFM: binds.
DILDRTGHQL: binds.

Each binder was assayed against T6, HLA-B*44:05 (human) in the same assay as above.
T6 construct: Peptide-receptive MHC class I monomer after UV cleavage of a UV-sensitive ligand
Source text: as §1, §2

AQDTTYLWW and DETAAYKIM cannot be ordered by peptide exchange yield: at least 75% for the first, 50 to 75% for the second.

DETHTLQF and KENQDHSYSL cannot be ordered by peptide exchange yield: at least 75% for the first, at least 75% for the second.

DEAVRDITW and DESKYTWSW cannot be ordered by peptide exchange yield: at least 75% for the first, at least 75% for the second.

QEVDISLHY and DETIWYVRF cannot be ordered by peptide exchange yield: at least 75% for the first, at least 75% for the second.

AERDLDVTI and TEGDFTKEASTY cannot be ordered by peptide exchange yield: at least 75% for the first, 50 to 75% for the second.

AEFFDYTVRTL and GEYRCQTDL cannot be ordered by peptide exchange yield: at least 75% for the first, at least 75% for the second.

KPREEQYDSTY and LENMYDLTF cannot be ordered by peptide exchange yield: at least 75% for the first, at least 75% for the second.

KEVDDTLLVNEL and AESLAVHDI cannot be ordered by peptide exchange yield: at least 75% for the first, 50 to 75% for the second.

RDATASLW and TDFTKIASF cannot be ordered by peptide exchange yield: at least 75% for the first, at least 75% for the second.
